One block for each binder: values may come before it.
B1: protein 4.2 (natural protein, human (endogenous in erythrocytes), UniProt P16452 1-691, looked up)
chain: MGQALGIKSCDFQAARNNEEHHTKALSSRRLFVRRGQPFTIILYFRAPVRAFLPALKKVALTAQTGEQPSKINRTQATFPISSLGDRKWWSAVVEERDAQSWTISVTTPADAVIGHYSLLLQVSGRKQLLLGQFTLLFNPWNREDAVFLKNEAQRMEYLLNQNGLIYLGTADCIQAESWDFGQFEGDVIDLSLRLLSKDKQVEKWSQPVHVARVLGALLHFLKEQRVLPTPQTQATQEGALLNKRRGSVPILRQWLTGRGRPVYDGQAWVLAAVACTVLRCLGIPARVVTTFASAQGTGGRLLIDEYYNEEGLQNGEGQRGRIWIFQTSTECWMTRPALPQGYDGWQILHPSAPNGGGVLGSCDLVPVRAVKEGTLGLTPAVSDLFAAINASCVVWKCCEDGTLELTDSNTKYVGNNISTKGVGSDRCEDITQNYKYPEGSLQEKEVLERVEKEKMEREKDNGIRPPSLETASPLYLLLKAPSSLPLRGDAQISVTLVNHSEQEKAVQLAIGVQAVHYNGVLAAKLWRKKLHLTLSANLEKIITIGLFFSNFERNPPENTFLRLTAMATHSESNLSCFAQEDIAICRPHLAIKMPEKAEQYQPLTASVSLQNSLDAPMEDCVISILGRGLIHRERSYRFRSVWPENTMCAKFQFTPTHVGLQRLTVEVDCNMFQNLTNYKSVTVVAPELSA
modifications: N-terminal glycine myristoylated

What was measured:
Assay in all cases: cryo-EM structure
band 3 anion exchanger [1] = molecular target: T1, band 3 anion exchanger (human (endogenous in erythrocytes), UniProt P02730 1-911)
T1 sequence (looked up): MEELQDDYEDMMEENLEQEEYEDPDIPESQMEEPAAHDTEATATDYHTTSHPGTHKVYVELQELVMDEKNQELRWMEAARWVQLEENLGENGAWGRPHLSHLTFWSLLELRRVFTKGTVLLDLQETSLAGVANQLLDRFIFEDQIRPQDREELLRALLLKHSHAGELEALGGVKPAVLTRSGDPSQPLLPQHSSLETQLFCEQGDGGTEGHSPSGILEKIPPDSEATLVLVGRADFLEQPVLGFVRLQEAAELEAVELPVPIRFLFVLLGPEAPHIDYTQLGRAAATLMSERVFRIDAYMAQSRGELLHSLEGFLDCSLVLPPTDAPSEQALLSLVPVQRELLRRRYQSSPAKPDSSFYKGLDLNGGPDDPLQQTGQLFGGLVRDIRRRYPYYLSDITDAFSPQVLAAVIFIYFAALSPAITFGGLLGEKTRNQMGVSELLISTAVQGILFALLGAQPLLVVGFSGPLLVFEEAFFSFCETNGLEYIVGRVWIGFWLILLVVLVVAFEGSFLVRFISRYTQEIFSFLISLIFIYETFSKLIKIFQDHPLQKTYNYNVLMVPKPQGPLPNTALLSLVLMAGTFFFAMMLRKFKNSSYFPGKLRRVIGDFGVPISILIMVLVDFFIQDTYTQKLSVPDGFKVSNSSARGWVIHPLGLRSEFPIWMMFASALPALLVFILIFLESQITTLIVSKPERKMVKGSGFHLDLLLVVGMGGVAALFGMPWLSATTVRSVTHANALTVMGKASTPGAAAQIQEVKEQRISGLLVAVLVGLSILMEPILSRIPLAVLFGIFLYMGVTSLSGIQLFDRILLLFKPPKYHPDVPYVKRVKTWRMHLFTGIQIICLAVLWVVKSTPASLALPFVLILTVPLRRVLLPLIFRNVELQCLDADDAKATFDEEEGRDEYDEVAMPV

protein 4.2 = molecular target: B1
RhCE = molecular target: T2, RhCE (human (endogenous in erythrocytes), UniProt P18577 1-417)
T2 sequence (looked up): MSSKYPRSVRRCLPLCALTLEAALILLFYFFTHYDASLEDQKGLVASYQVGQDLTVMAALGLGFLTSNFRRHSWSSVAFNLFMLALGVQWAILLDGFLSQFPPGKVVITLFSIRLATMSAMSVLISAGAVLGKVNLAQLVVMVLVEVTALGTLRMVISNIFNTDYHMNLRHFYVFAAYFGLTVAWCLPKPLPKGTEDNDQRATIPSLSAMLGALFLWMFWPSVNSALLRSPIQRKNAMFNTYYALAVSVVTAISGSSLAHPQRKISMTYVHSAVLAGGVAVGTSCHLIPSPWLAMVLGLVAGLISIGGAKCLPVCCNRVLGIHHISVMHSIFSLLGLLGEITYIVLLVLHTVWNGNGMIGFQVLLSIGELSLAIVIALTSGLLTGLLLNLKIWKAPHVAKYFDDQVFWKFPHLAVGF

cryo-EM structure = molecular target: the molecule itself
band 3 anion exchanger [2] = molecular target: T1, band 3 anion exchanger; remark: listed apart in the source

Binder: B1
- binding result (band 3 anion exchanger [1]): binds

- binding result (protein 4.2): binds
B2: aquaporin-1 (natural protein, human (endogenous in erythrocytes), UniProt P29972 1-269, looked up)
chain: MASEFKKKLFWRAVVAEFLATTLFVFISIGSALGFKYPVGNNQTAVQDNVKVSLAFGLSIATLAQSVGHISGAHLNPAVTLGLLLSCQISIFRALMYIIAQCVGAIVATAILSGITSSLTGNSLGRNDLADGVNSGQGLGIEIIGTLQLVLCVLATTDRRRRDLGGSAPLAIGLSVALGHLLAIDYTGCGINPARSFGSAVITHNFSNHWIFWVGPFIGGALAVLIYDFILAPRSSDLTDRVKVWTSGQVEEYDLDADDINSRVEMKPK
modifications: lipid-like density attached to Cys-87, assigned as a palmitoylation site

- stoichiometry N (RhCE): 2 RhAG per RhCE
B3: RhAG (natural protein, human (endogenous in erythrocytes), UniProt Q02094 1-409, looked up)
chain: MRFTFPLMAIVLEIAMIVLFGLFVEYETDQTVLEQLNITKPTDMGIFFELYPLFQDVHVMIFVGFGFLMTFLKKYGFSSVGINLLVAALGLQWGTIVQGILQSQGQKFNIGIKNMINADFSAATVLISFGAVLGKTSPTQMLIMTILEIVFFAHNEYLVSEIFKASDIGASMTIHAFGAYFGLAVAGILYRSGLRKGHENEESAYYSDLFAMIGTLFLWMFWPSFNSAIAEPGDKQCRAIVNTYFSLAACVLTAFAFSSLVEHRGKLNMVHIQNATLAGGVAVGTCADMAIHPFGSMIIGSIAGMVSVLGYKFLTPLFTTKLRIHDTCGVHNLHGLPGVVGGLAGIVAVAMGASNTSMAMQAAALGSSIGTAVVGGLMTGLILKLPLWGQPSDQNCYDDSVYWKVPKTR
- binding result (cryo-EM structure): binds

- stoichiometry N (band 3 anion exchanger [2]): 1 GPA per band 3 protomer
B4: glycophorin A (natural protein, human (endogenous in erythrocytes), UniProt P02724 20-150, looked up)
chain: LSTTEVAMHTSTSSSVTKSYISSQTNDTHKRDTYAATPRAHEVSEISVRTVYPPEEETGERVQLAHHFSEPEITLIIFGVMAGVIGTILLISYGIRRLIKKSPSDVKPLPSPDTDVPLSSVEIENPETSDQ

— article PMC10373098 (Nature structural & molecular biology, 2022)
